The record followed here is the DeepSol protein solubility set.

The data set can be described thus: soluble on expression in E. coli; label from the status in PepcDB or PDB records.
Turning to “METKQKERIRRLMELLKKTDRIHLKDAARMLEVSVMTIRRDLSQDDDPLPLTLLGGYIVMVNKPASSTNMPLPAKKTHHRDDLPVAILAAGLVRENDLVFFDNGPEMPLVISMIPDDITFTGICYSHRVFIALNEKPNATAILCGGTYRAKSDAFYDANNPSALDSLNPRKVFISASGVHEHFGVSWFNPDDLAAKRKAMERGLRKILLARHALFDEVAPASIGPLSAFDVLISDRPLPTDYAVHCRNGSVKVITPDSESE”, the “soluble on expression in E. coli” value is “not soluble”.

“MKKWLALFVFGMVSLFATSAHAESYETTKTLKVYESRSFNSPVKKELQPGERVYVTNQHPSGWWKISGGFIAPEGAKVEINRTFEAFDWINMDSAKYVFSPQTVIARDGTLRGEILIDTYLGQKWTSVNGMPQIMKQNFAAYSSPEAKNPDAWFAPQTVNILQTKENGWSLINTYLGPKWIVRYPHVEHINRDFYAYNEPKYMHHGVKFSAQSVRVLQQGENGWKKIKAEVGEKWIAPQGSYYHVPNVFTAFDQPFGRAIGTFAPQTVFVVEESTTSFGWLKIRTYLGDSWIRTNRN”: the “soluble on expression in E. coli” value is “not soluble”.

In the case of “MTTTIEVGMLGLGTVGSGVVERLTRSAAKIEQTQGIRLHLAAVAVNHLNAPRTVQLPIGTRLTDSLTNVVCDRKIQLVIEVMGTVATAKKAIVAALNQGKAVVTANKDLIATAGPELAALAKKQGCDLFYEASVAGGIPILRTLTDSYVTDNVQAVSGIINGTANYMLSAMATGQSYEQALATAQATGYAEADPTNDVAGIDAAYKLMILSRFAFGQELSLPQIAPTGITHLSASVCRLAAENGWQIKLLAQIQRHGSGLYCRVAPVAVPVDQPLSQINGVQNAVAVQSEAIGTSLYTGPGAGSTATANSVLNDVLVAAKHLINGYRMIRNQKRSVSLTVTRFDQLPQTYLGIGPVAPEAVKYYANEADFSVKTIADDCYQITGLSAVKRKKLRANLPLTLIPIAGTTDWKQVTENSITSPINVAI”, the “soluble on expression in E. coli” value is reported as “not soluble”.

“MESKRNKPGKATGKGKPVGDKWLDDAGKDSGAPIPDRIADKLRDKEFKSFDDFRKAVWEEVSKDPELSKNLNPSAKSSVSKGYSPFTPKNQQVGGRKVYELHHDKPISQGGEVYDMDNIRVTTPKRHIDIHRGK”: the “soluble on expression in E. coli” value is “soluble”.

Consider “MSLSKLDIPLSIMQKSVVIRPGGRQEMDEHVAIETPYAIALNDRVIGSSMVLPVDLEEFGAGFLFGQGYIKKAEEIREILVCPQGRISVYADVENEEPREVIITSGCGGTGKIPKEMLEGEFAPLADYCLPFAEIKSFIREALHSSPLGPQTHCVHGCGLWNNGRLQVYHEDVGRHNAVDKVLGSILLGRASNNSAVYTTGRLTSDMVLKCARIGIPIIMSRTSPSSLGLALAKRSGATLVAYSRPERINVFNAPERILTEGHHHHHH”, for which the “soluble on expression in E. coli” value was “soluble”.

Regarding “STTIYDLKKQKDKLLKFYAESDEQILMKNRKTLHKAKNEDLDRVLKEWIRQRRSEHMPLNGMLIMKQAKIYHNELKIEGNCEYSTGWLQKFKKRHGIKFLKTCGNKASAGHEATEKFTGKFSNDDEQDGNFEGFSMSSEKKIMSDLLTYTKNIHPETVSKLEEEDIKDVFNSNNEAPVVHSLSNGEVTKMVLNQDDHDDNDNEDDVNTAEKVPIDDMVKMCDGLIKGLEQHAFITEQEIMSVYKIKERLLRQKASLMRQMTLKETFKKAIQRNASSSLQDPLLGPSTASDASSHLKIK”, the “soluble on expression in E. coli” value is “soluble”.

For “PKEQSMKIVVIGGTGLIGSNVVNRLRRDGHETVAASPGTGVNTITGEGLAQALDGAQVVVDVANSPSFEDQAVMAFFETSGRTLLAAEAAAGVTHHLALSVVGTDRLADSGYFRAKVAQEALIKASKVPYTILRATQFFE”, the “soluble on expression in E. coli” value was “not soluble”.

Consider “MKIKIFIITSLIILTSVSCRRNVFNPSIPNRTQFVEDPIANLSIPSKDAAVEVIPVESIYKTGQTSLIYNWYIHFFDFNGKYYLTARDKCSYDSANKTMIITNNSYYNLLEIDVNDNFYMKEIRTNIDSSIPDDNRIINAFTKIVNGEAYTNADTIFIQDGGKYYSSKNIITWTEISQIPSDASKKEATDQYKIPITAQNGKTYTYVYASGAREFSISRLSDRMKQLAKRLETKFDFKEEDFNNHHMFDIGLNENGSSNPDFRLNPTNYLNNDTNYVYMGATDAAGQLWLLPVKKNGKDYLVRLPEHGGPELYIISDLQNDMNTYQTKAQESLTKALSLAASGGDTSAIEDACYESILNDANYKANKYFLDVIDKMGAKVNFGTTVYATSSKPITHYVIDIVDIQKD”, for which the “soluble on expression in E. coli” value is reported as “not soluble”.

In the case of “MKYQVSLLAVKDIEVSKKFYKELFEQEIELDLGKNVTFKGGFAIQEDFAWLTGINPDTIIQKSNNMELYFEVDDFDEFIEKLNYYKDVEFVHKPLKHEWQQRVVRIYDPDKHIIEIGESMEVIARRYLSEGYSVEETSKIIQHPIEFVKQCENSKELEHHHHHH”, the “soluble on expression in E. coli” value was “soluble”.

Turning to “MTKQIKVGVIGVGQMGQYHAEIYQKLPQVELVAICEFNDERRAEMAEKFQCKAYKDYHELLANTEIEAVIIVLPDNMHRDCVEEAVKHKKHILLEKPLAKELEDGKAMYELTKDYDKVFTVGFLLRFDPRFNMIKQRLDNGELGDIIHLYCRRNSPITGPKRYIGASDLSMHVMIHDIDYINWYMDSEPVKVIAKSRSVLLKEYGMNDVIYAIVTYENGAIACLEACWVLPENSPTIIDDKLELVGTKGVAYVDSCDHGVRFVSEKGVSYPDSRHWYYTNGEVSGDLAEEVMAFINNVANNTKSIITPKEAYDSLRVVDAIERSIAEGKEVSL”, the “soluble on expression in E. coli” value is reported as “not soluble”.

As to “MIRLSEQSPLGTGRHRKCYAHPEDAQRCIKIVYHRGDGGDKEIRRELKYYAHLGRRLKDWSGIPRYHGTVETDCGTGYVYDVIADFDGKPSITLTEFAEQCRYEEDIAQLRQLLKQLKRYLQDNRIVTMSLKPQNILCHRISESEVIPVVCDNIGESTLIPLATWSKWCCLRKQERLWKRFIAQPALAIALQKDLQPRESKTLALTSREA”, the “soluble on expression in E. coli” value is given as “soluble”.

In the case of “MSLEDVIEQLRELNEPVPVPLELPDEDLLVEIEEQLLINLPFELREFLMKVSDVIYGSLEPVTVSDPQSHTYLPEVAAVAWDQGMPRDMVPLCQVGDDYYAVDIEGQVLLWSSDSGELSDESWDSVWHWAKDVWLASEGHHHHHH”, the “soluble on expression in E. coli” value was “not soluble”.

“PFINIKLVPENGGPTNEQKQQLIEGVSDLMVKVLNKNKASIVVIIDEVDSNNYGLGGESVHHLRQKN”: the “soluble on expression in E. coli” value is on record as “soluble”.

For “MGSDKIHHHHHHYGLGRSWAPGLSQLDGVPRLGGTLDAPLVLNDASELSATPIHIHTRPAAHGDALIEAFRAELTAAQAEDRPVCVSAARHSMGGQSLPRGGHAITVDNAWIEPDTANQTYRVNGGARWRDVIAALDPIGFSPAVMQSNHDFGVAATFSVNAHGWPVPYGPMGATVREIRMVLPGGDLVTASRTENTDLFNLAVGGYGLAGLIVDMEVDMVPNQRLAPSFTPMPAADFPAAFRAAVDDPTMPMGYGRLNVTRESLFEEALLVTYSPTPDQSDIPPAIESGWLSYAASYLYRGQVGREGMKDWRWWVEADLGPRLAGESTRNSLMNEPVITLDDRDPTRVDILHEYFVPFDAFDGFLEACRDVIPDAFVEFLNVTLRFVDSDTDSLLPHSPTPRIAAVMSFTQEKTTRAEADHARMTRALIDRIVAIGGTYYLPYRPHATLDQFTAAYPNAPEFAAAKRALDPTLTLRNNLWDSYLADL”, the “soluble on expression in E. coli” value is reported as “not soluble”.

Regarding “MSLAFRTLSFGIKRSQPKKKDADDLNKKKELSTITEESLRRYDELREKMIGKVESKIEKKVKKNKKKASIEILASRKRVHDSDGDSENEVEETVGDVEKRMQKLLDDIRRTNRIFTWGDHLPNIILRFSDSSMSPSLLNRLSENSIRQPSPIQMQSIPFMTERRNVLASAPTGSGKTLAFALPVIDEILELKQRADYSSSNSSKLLAVVLEPTRELAAQTYTEFLKYCANTSISAANFSGEETDIQHADILVSTPNRIVFHLDKIDTSSLRWLVVDESDRLFEVVEGQDKCFRNQLAAIYKACDAKCTRVAFFSATFSHEVEKWCKENIDEIGMVCVGERNSSNTSVKQKLTYCGTEDGKKIAIRNLLRTSFKPPALVFVQSKDRAVQLVKLLSAIDSNLKVDSINSGKSDKERDETMERFRRGEIWVLVCTELLGRGLDLSDVGLVINYDLPTSIVSYIHRVGRTGRAGKSGHAVTYFTDADMKYIKSIATVIRQSGFDVPEYLMEMKKVSRDRKKDMLKHAPKRHKIAIVKEQVIKKKKMLAKAAAEEKAKNKTETQTAEKPEKKIKKKKLIKKNNKNI”, the “soluble on expression in E. coli” value is recorded as “not soluble”.

With “MQVELIIKNLKVYNSYFKKFIKSDVLINEGKFLHIGKGYEDRLWSENIIDGEDKYIIPGLIDIHMHIESSMTIPREFSKAAIKHGVTTVVADPHEIANVFGVRGIEEFIKFKGNLDIFYGILEHHHHHH”, the “soluble on expression in E. coli” value was “not soluble”.

For “GPGSMPSKRATRVQKLHEGTGDDNLPVFSIFIEKEGEGQYGRIDIEIFVNKVPKSCEIFLHSCPAALTGDKRVSKPSLVRQHRFLRLTNEGLQVGERPVSRLVSLSDIENEIGRVNHGIGVVSLCRSSNTFDESFFFCLTDNRTELESLDKRHTAFGRVVYGLELLFLLRDALIPYVKEGCVIEGSPYAISDILPKAAT”, the “soluble on expression in E. coli” value is “soluble”.

With “MSLSLRVRQIDRREWLLAQTATECQRHGREATLEYPTRQGMWVRLSDAEKRWSAWIKPGDWLEHVSPALAGAAVSAGAEHLVVPWLAATERPFELPVPHLSCRRLCVENPVPGSALPEGKLLHIMSDRGGLWFEHLPELPAVGGGRPKMLRWPLRFVIGSSDTQRSLLGRIGIGDVLLIRTSRAEVYCYAKKLGHFNRVEGGIIVETLDIQHIEEENNTTETAETLPGLNQLPVKLEFVLYRKNVTLAELEAMGQQQLLSLPTNAELNVEIMANGVLLGNGELVQMNDTLGVEIHEWLSESGNGEEGHHHHHH”, the “soluble on expression in E. coli” value is on record as “soluble”.

On to “MGSDKIHHHHHHMLQLTQVRIWVITFKSYLRMNKNMIKGMIVFATIAEKGSMSAAAQQLNLSSSAVSQQVTKLEMDMGISLFHRNTRNLTLTEAGSLFYENCRKVISIVDSTEQKLNNLKGIPSGELKIAAPVGFGGGLLSEPFQYLLATHPQISLNLVMQDGPIDIVNDGIDLAICIGPLSDSNLIARHLADWRMLLCTSPDYLPMHHNIKHPSELAAFNRINHNYTKGELLTHHPSLECFELTGQRISVNNMQTLIQLTLDGLGYAALPEPEVLDYLDKGVLVPLLPEWSFNTYSVYSVTSARDRQPAKVKEALNALSQYFSQTDFNHADQLKGGSYQTEHIKSGKEHRLGT”, for which the “soluble on expression in E. coli” value was “not soluble”.

With “MPASVTHVIFDFDGLLVDTESAYTEANMELLRKYGHVFTMDLKRRQMGKRHDESIRWLINELKIGDLVTPEEYSRQYDELLIEMFKRSPAMPGAEKLVRHLLHTGVPVALCTGSCSRTFPTKLDNHKDWVNMIKLQVLSGDDPEVKHGKPHPDPFLVTMKRFPQVPESADKVLVFEDSYNGVLSALDAGMQCVMVPERSIFDPDSDPEFKNRVTVILNSLEQFKPEDFGLPPY”, the “soluble on expression in E. coli” value is reported as “not soluble”.

For “MSLNYQMITTDDALASLCEAVRAFPAIALDTEFVRTRTYYPQLGLIQLFDGEHLALIDPLGITDWSPLKAILRDPSITKFLHAGSEDLEVFLNVFGELPQPLIDTQILAAFCGRPMSWGFASMVEEYSGVTLGKSESRTDWLARPLTERQCEYAAADVWYLLPITAKLMVETEASGWLPAALDECRLMQMRRQEVVAPEDAWRDITNAWQLRTRQLACLQLLADWRLRKARERDLAVNFVVREEHLWSVARYMPGSLGELDSLGLSGSEIRFHGKTLLALVEKAQTLPEDALPQPMLNLMDMPGYRKAFKAIKSLITDVSETHKISAELLASRRQINQLLNWHWKLKPQNNLPELISGWRGELMAEALHNLLQEYPQEGGSHHHHHH”, the “soluble on expression in E. coli” value is listed as “soluble”.

As to “MKKWFLLLIASLVGYIAYEDLTVGTLPASSKTPVVRENIGIPAYKVIKIKAGDTLLSIAEREQQGPLPVSIETLIRDFEKLNPEAKADALQIGKTYKIPVYEK”, the “soluble on expression in E. coli” value is “not soluble”.
